# Test results as given in the DeepSol protein solubility set.
# Experiment: soluble on expression in E. coli; label from the status in PepcDB or PDB records
row,Sequence,soluble on expression in E. coli
1,SGSNETLPDNFGKGGWKICFKIEPPATLGNGMLKISFHSDYNRKPHPDDIVEETIKDMWKRRKEVNPKMWNALKFRVDSYSTFHAQGASVVKLNLGLTDYASYQGSGSLASPLTFFQSPEEGAPERHLPLSLGNAGIVLTSDNFIILLERSEQVGEGVGRWVLPGGHPEPSHVNIPDSYLTQSYEGTRDMCLTIERELYNSILMEITEEVGLRSSELFTLQLLGMVQRERDKRPVLVGHTRTTLSKSEMEARFCCQRIHTEACRILFCDIRQVETFFQENEQIMPEHRGALQLYFESSVCQQDWKLCKE,soluble
2,TEPPGVIIVGESEFSFHLGINLRDHGIPVMMFNLFENTSEKAHEAGFEVFKGNLLSSNDRIYSDLLRYNKCILMTQSFIFNSLAFNELVPEFGLNNVDMMPVSFNDEQARNNLNGPIRNHILFDENHTPRWFNQFITQHNIVEVPAEDYEKITEN,not soluble
3,MGSDKIHHHHHHMSTPGSTPPPSVADQPHPLPLANGHPISGATADAAAQWLTLLMSDEMTDSDYQCWQQWRAAHPDHERAWQHIEAVTARFRELPSTAAYKSLSPLTNPVSAGKPGSPGRRKAMGTLLWLGTAGVGSMLVSRTQIWQQTVADYRTGTGEQRAIYLADGTHIMLNTYSAIDVAFDAQHRTIRLITGDILITTHPVHTPISDPRPFIVETAEGRIRALGTRFTVSQRKGRTHVAVLEHAVEVTPAAAPDRQYILPAGQQLSFTRHTLNNATTLDKQTTGWTQGQIIADNIRLGDFITDLGRYRTGLLRCDPAVAELRLSGVFPLDDTDRILETLPSVLPVRVRLRTRYWVIVEAAS,not soluble
4,SQFKWSDFRILDRVSIGHGGRADELVFEAIVQVPDSPLFNQGVVLRKLNTTRAQRRGRRAIEVFKKLVRRRLLYHSYSMQVHGYITNNLSDDQYSFTLVHGCHGSFSIRHWLQQSDWIPTLEATLALDEESFRRVGDDTTGGPAVSRQLRLIRTLMRDILIGVNYLHSHGLAHTELRLENVHISPVDRHIKVGILGNAADFNGDVPSTSNAYSTMDRRQMMIAFDMRCVGFMMAKMVLQELMDPLIFAKLKSFLAKGNDPSSLREFFVTTLNTNSESGNTGVQILDRNWGAGWHLLSLLIATRPSERISCLDALKHPFLCGPRWRVAPSMDIIRWGLGSTAVKISEEYIYRMPQRQRLAHFIGLMEMLNPYPKPNCWLELLPGRWRLLYSTGKHIGLTLRQPSTRALIGNVHLTITRASESINNTSLSFTSDIRFTAITSKDWPHNKIGAAGKLQTLSQFRLIAGKRLYLKEEKKNIGKFSMGEPDAEEGLAEKLETEKWKKVVPFKEFPSSLPVAKLVSGEIEVTMNMNDHIDSPGSVIGEVRKQIPPEMFDLSKLVCGTYIDSRLLVLRCVNGSALLFTRSSLDHKSM,soluble
5,MGHHHHHHSHTRDELRAKALHIPFPVEKIINLPVVDFNEMMSKEQFNEAQLALIRDIRRRGKNKVAAQNCRKRKLENIVELEQDLDHLKDEKEKLLKEKGENDKSLHLLKKQLSTLYLEVFSMLRDEDGKPYSPSEYSLQQTRDGNVFLVPKSKK,soluble
6,MGHHHHHHSHMAEAKPDVWKSYNVGTVLFEDKASETKGSDIYHRIIPDAESYIKEQARTVLATLYNSPEDSITPVNKIHYTLEDIEGISAKGGGNGDVTIFYSTRHIEKSFAENDTAKLFFETRGVLLHELTHAYQLEPQGIGSYGTNRVFWAFIEGMADAVRVANGGFDGPNARPKGGNYMDGYRTAGYFFVWLRDNKDPEFLRKFNRSTLEVIPWSFDGAIKHILGTEYSIDELWHEYQVAVGDIQV,soluble
7,MKASTVLQIAYLVSQESKCCSWKVGAVIEKNGRIISTGYNGSPAGGVNCCDYAAEQGWLLNKPKHAIIQGHKPECVSFGSTDRFVLAKEHRSAHSEWSSKNEIHAELNAILFAAENGSSIEGATMYVTLSPCPDCAKAIAQSGIKKLVYCETYDKNKPGWDDILRNAGIEVFNVPKKNLNKLNWENINEFCGE,soluble
8,MGSDKIHHHHHHMDLDRLQTFLKVVQYGSFQQVAAREYRSQRTVSKQMTQLENELKVTLFDRGQNRIQLTPQGRLFWASAQDIVNNYTTALTELRQFNVPTDQILRVGYFSAFEQRLLLPALYDLKQQHSELQLVVRQGSNEHLAQQVADGSLDLALSINYGRPAVTPESQLTAVPIYHNQMVIGVSRLNPLSRLSQLPPSALATLPILYYSPESSTFLLESFLASAPFIQDYEQIRRVSSAEQMHLLVALNQALAFYPAGLVPTKHDEQVAYLPITDAAQQGYDIVALLKSNRSRPLIAKLVQRLKANAKSDE,not soluble
9,MLLSIITVAFRNLEGIVKTHASLAHLAQAEDISFEWIVVDGGSNDGTREYLENLNGIYNLRFVSEPDNGIYDAMNKGIAMAQGKFALFLNSGDIFHQDAAYFVRKLKMQKDNVMITGDALLDFGDGHKIKRSAKPGWYIYHSLPASHQAIFFPVSGLKKWRYDLEYKVSSDYALAAKMYKAGYAFKKLNGLVSEFSMGGVSTTNNMELCADAKKVQRQILHVPGFWAELSWHLRQRTTSKTKALYNKS,not soluble
10,MGSDKIHHHHHHMKHGGYPWKNGKPALDVKDFSVNLNPMGVPKFIEELINEAVKLKVYAYYPPQNLREIKGIIAEIYGVNEDLVGVFNGASEVISILDENFTVPQPNYSEYKFHSYYFAEEHEDEFVFELNPGRILTSNPNNPTGSLIKLDEIEEFLINEKNELILDESFIDISLAESATKLVNEFNNLTIINSFTKSLAIPGLRFGFSIGHKSKELEKRVPIWRINSITYYVISNLNPKEVRSFFVNSKIKVKEIYDKVDGVKKLFKMYKSYAPFFLVEFKIPTSLINDELIRRCKCYIRDASNFLGLRNTHARIALKNEVIELINNINEIISEKES,not soluble
11,MYGLVNKAIQDMISKHHGEDTWEAIKQKAGLEDIDFFVGMEAYSDDVTYHLVGAASEVLGKPAEELLIAFGEYWVTYTSEEGYGELLASAGDSLPEFMENLDNLHARVGLSFPQLRPPAFECQHTSSKSMELHYQSTRCGLAPMVLGLLHGLGKRFQTKVEVTQTAFRETGEDHDIFSIKYEDSNLYDD,soluble
12,MVQNIPIYIQIHDKIKEDIEKGVWSIGDRLPSERELALKFDVSRMTLRQAIQTLADEGILERKIGSGTYVARKKVQETMTGTTSFTEITLSQNRVPSSRTVSYFVAKPSSSEMEKLQLGPEDSILRMERIRFADDIPICFEVASIPYSLVSQYGKSEITNSFYKTLEAKSGHKIGHSNQTISAVQASEQIAEYLEIKRGDAILRVRQVSYFENGLPFEYVRTQYAGSRFEFYLEK,not soluble
13,MIFAYNKEQVGDVLLVILEDTKDIKRSVERKGKVARVTADETGKTLAWNIFEASSLIDIEGNGQVFLSDQDVAILNEELAKEGFEERLENTQGPVFVVGQIDEMVPHPDSDHLNICQVNIGDKKVQIVAGAPNASPGLKTIVALPGAMMPSGALIFPGKLRGEDSYGMMCSPRELALPNAPQKRGIIELDDSAVVGEAFDPAKHWKRLEHHHHHH,soluble
14,MKPLLTAMFGATLATASTLASAEVAVIMNAGASAAPSQAEVANIFLGKDTSLKGLDQKGWNPTKERFYSALTNKNESQLKSYWSGLVFTGKGQPLQSVDDDAAVIAKVGSEANAIGYIDTSAVNDKVKVLFTLP,not soluble
15,MGSDKIHHHHHHMYFNVYGHAGKPIIVFPSSGGSQNEYGDFGMIEACQSFIDRGVVKFYTPDSLDRESWLAEGKSGHDMALAHEAYDRYIVHELVPLIRYESNWNGMMMATGCSMGAFHTVNFSLRHPDLFDISVALSGVYDARFFTGEFYGDPAVYYNSPIDYLWNQEDSWFLDRYRRNRFIVAVGQGAWEEPHIIDTIRLKEAFEAKSIPAWFDFWGSDVAHDWEWWRVQMPYFLGKLEEEGRI,not soluble
16,AEIKAVSAARLLDVASGKYVDNPLVIVTDGRITSIGKKGDAVPAGATAVDLPGVTLLPGLIDMHVHLDSLAEVGGYNSLEYSDRFWSVVQTANAKKTLEAGFTTVRNVGAADYDDVGLREAIDAGYVPGPRIVTAAISFGATGGHCDSTFFPPSMDQKNPFNSDSPDEARKAVRTLKKYGAQVIKICATGGVFSRGNEPGQQQLTYEEMKAVVDEAHMAGIKVAAHAHGASGIREAVRAGVDTIEHASLVDDEGIKLAVQKGAYFSMDIYNTDYTQAEGKKNGVLEDNLRKDRDIGELQRENFRKALKAGVKMVYGTDAGIYPHGDNAKQFAVMVRYGATPLQAIQSATLTAAEALGRSKDVGQVAVGRYGDMIAVAGDPLADVTTLEKPVFVMKGGAVVKAP,soluble
17,MVLLGRGLLAVGRVAFRRPMIVRHLQYDAFVDRHIGPRRLEQQQMLDFIGYKDLDDLTGTNVPNMIKAEKALELPAPLDEYKMLKELEAIAAQNKIYRSYIGMGYYDTIVPAVISRNILQNIGWISQYTPYQAEISQGRLESLLNFQTMIAEMTGLPTTNASLLDEATASAEAVALAARTTKRNKIVVDSFCHPQNLDVIRTRSGPLGIDIEVSDSIEGYAFDDKVAAVVVQYPNTEGRIHQFDELIESAHKNKSLVIMVCDLLSLTILRSPGDLGADIAVGSAQRFGVPLGYGGPHAGFMAVAKHDAKNALGRNIPGRIIGVTKDANGNRALRLALQTREQHIRRDKATSNICTAQALLANMSAMYAVYHGPQRLTEIARGVHKSTAYLAYHLRNAGHEIVHKDYFDTLKIRLKDKAALEETKKRAEEMKMNFRYYEDGDIGVSLDETVKSEDLMDIIYTLNGATEKDVTKLREERWEVACPLIGNSPHSRSSLFLQHPVFNTHQSEQQLVRYMKRLENKDVSLVHSMIPLGSCTMKLNASAELIPITWPTLSSIHPFAPVEQAKGYSRIFGDLEKWLCEITGYDNFSLQPNSGANGEYAGLLAIRNYLIHKGEEQRNICLIPTSAHGTNPASAQMANMKVVVVDSDHHGNINYKDLAAKAEKYSNQLAAIMVTYPSTHGVFESSIRDVCDKVHEHGGQVYLDGANMNAQVGLCRPGDYGSDVSHLNLHKTFCIPHGGGGPGVGPIGVKKHLAPFLPGHSVVPVDGRKVGSVASAPYGSASILAITWAYIRMMGPVGLREASQVAILNANYMAKRLENDYRIVYKDEQGLVAHEFIMDCKPFKKHGIEVVDIAKRLMDYGFHSPTMSWPVHDCLMIEPTESEDKAEMDRLVEALLSIREEIRQVENGSLDKHLNPLKMAPHTLEKVTSDNWNMPYSRELAAFPKPWCTHKAWPTVGRVDDQYGDRNLVCTCPPIESYQ,not soluble
18,MKEGDTMSWQTHTVFNQPAPLNNSNLFLSDGALCEAVSREGAGWDSDLLASIGQQLGTAESLELGRLANAHPPELLRYDPQGQRLDDVRFHPAWHLLMQGLCANRVHNLAWEEEARAGSFVARAARFVLHAQVEAGTLCPVTMTFAATPLLLQMLPATFHDWLAPLRSDRYDSHLLPGGQKRGLLIGMGMTEKQGGSDVLSNTTHAERLADDSYRLVGHKWFFSVPQSDAHLVLAQAKGGLSCFFVPRFLPDGQRNSVRLERLKDKLGNRSNASAEVEFQDAIGWRLGEEGEGIRHILKMGGMTRLDCALGSHGLMRRAFSVAIYHAHQRQAFGKPLIDQPLMRQTLSRMALCLEGQTALLFRLARAWEQRREAKEALWARLFTPAAKFAICKLGIPFVAEAMEVLGGMGYCEESELPRLYREMPVNSIWEGSGNIMCLDVLRVLTKQHGVYDVLSEAFAEVKGQDRHYDRAVRQLQQRLRKPDEAMGREITQQLFLLGCGAEMLRHASPPLAQAWCQMMLDTRGEMPLPAQVQNDLLLRATGGLR,not soluble
19,NIVLTQSPKSMSVSVGERVTLSCKASENVDTYVFWFQQKPDQSPKLLLYGPSNRYTGVPDRFTGSGSTTDFTLTISSVQAEDLADYHCGQSYSYPYTFGGGTKLEIKRADAAPTVSIFPPSSEQLTSGGASVVCFLNNFYPKDINVKWKIDGSERQNGVLNSWTDQDSKDSTYSMSSTLTLTKDEYERHNSYTCEATHKTSTSPIVKSFNRNEC,soluble
